Assay results reported in publication PMC8154056.

Target: Gloeobacter violaceus deeply-rooted thioredoxin reductase (GvDTR), renamed ferredoxin flavin-thioredoxin reductase (GvFFTR) (Gloeobacter violaceus) (UniProt Q7NMP6)
Experiment: ITC

- stoichiometry N: 1
Substance: Gloeobacter violaceus plant-type [2Fe-2S] ferredoxin 1 (GvFdx1) (natural protein)
